Source: the RNAGym collection of RNA variant scans (doi:10.1073/pnas.2313332121)

B1: TPR t1 (parent)
chain: GACCAAUCUGCCCUCAGAGCUCGAGAACAUCUUCGGAUGCAGAGGAGGCAGGCUUCGGUGGCGCGAUAGCGCCAACGUCCUCAACCUCCAAUGCAUCCCACCACAUGAUGAUGCCUGAAGAGCCUUGGUUUUUUG

Variants of: B1
Experiment: polymerase ribozyme fitness, log enrichment relative to wild type (log ratio); higher = more active; in vitro selection for triplet polymerase activity
Method in brief: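 Each subunit of a heterodimeric triplet polymerase ribozyme was represented by a PCR-built, transcribed mutant library that underwent triplicate single-round in vitro selection with frozen incubation at −7 °C. Extended constructs were recovered by gel excision, streptavidin-bead capture and RT-PCR, and Illumina sequencing of input and output libraries kept genotypes with ≥10 input reads and ≥1 read per output. Fitness is the logarithm of genotype enrichment relative to wild-type enrichment, from inverse-variance-weighted replicate averages, with a logarithm base of 2.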

In order of rising “polymerase ribozyme fitness (log ratio)” value:
1. GACCAAUCUGCCCUCAGAGCUCGAGAACAUCUUCGGAUGCAGAGGAGGCAGGCUUCGGUGGCGCGAUAGCGCCAACGUAGUCAACCUCCAAUGCAUCCCACCACAUGAUGAUGCCUGAAGAGCCUUGGUUUUUUG  -5.91
2. GACCACUCUGCCUUCAGAGCUCGAGAACAUCUUCGGCUGCAGAGGAGGCAGGCUUCGGUGGCGCGAUAUCGCCAACGUCCUCAACCUCCAAUGCAUCGCACCACAUGAUGAUGCCUGAAGAGCCUUGGUUUUUUG  -4.9
3. GACCAAUCUGGCCUCAGAGCUCGAGAACUUCUUCGGAUGCAGAGGAGGCAGGCUUCAGUAGCGCGAUAGCGCCAACGUCCUCAACCUCCAAUGCAUCUCACCACAUGAUGAUGCCUGAAGAGCCUUGGUUUUUUG  -4.69
4. GACCAAUCUGCCCUCAGAGCUAGAGAACAUCUUCGGAUGCAGAGGAGGCAGGCUUCGGUGGCGCGAUAGCGCCAACGUCCUCAACCUCCAAUGCAUCCCACCACAUGAUGAUGCAUGAAGAGCCUUGGUUUUUUG  -4.55
5. GACCAAUCUGCCCUCAGAGCUCGAGAACAUCUUCUGAUGCAGAGGAGGCAGGCUUCGGUGGCGCGAUAGCGUCAACGUCCUCAACCUCCAAUGCAUCCCACCACAUGAUGAUGCCUGAAGAGCCUUGGUUUUUUG  -4.43
6. GACCAAUCUGCCCUCAGAGCUCGAGAACAUCUUCGGAUGCAGAGGAGGCAGGCUUCGGUAGCGCGAUAGCGCCAACGUCAUCAACCUCCAAUGCAUCCCACCACAUGAUGAUGCCUGAAGAGCCUUGGUUUUUUG  -3.69
7. GACCAAUCUGCCCUCAGAGCUCGAGAACAUCUUCGGAUUCAGCGGAGGAAGGCUUCGGUGGCGCGAUAGCGCCAACGUCCUCAACCUCCAAUGCAUCCCACCACAUGAUGAUGCCUGAAGAGCCUUGGUUUUUUG  -3.34
8. GACCAAUCUGUCCUCAGAGCUCGAGAACAUCUUCGGAUGCAGACGAGGCAGGCUUCGGUGGCGCGAUAGCGCCAACGUCCUCAACCUCCAAUGCAUCCCAACACAUGAUGAUGCCUGAAGAGCCUUGGUUUUUUG  -2.7
9. GACCAAUCUGCCCUCAGAGCUCGAGAACAUCUUCGGAUGCAGAGGAGGCGGGCUUCGGUGGCGCGAUAGCGCCAACGUCCUCAACCUCCAAUGCAUCCCACCACAUGAUGAUUCCUGAAGAGCCUUGGUUUUUUG  -2.68
10. GACCAAUCUGCCCUCAGAGCUCGAGUACAUCUUCGGAUGCAGAGGAAGCAGGCUUCGGUGGCGCGAUAGCGCCAACGUCCUCAACGUCCAAUGCAUCCCACCACAUGAUGAUGCCUGAAGAGCCUUGGUUUUUUG  -2.67
11. GACCAAUCUGCCCUCAGAGCUCGAGAACAUCUUCGGAUGCAUAGGAGGCAGGCUUCGGUGGCGCGAUAGCGCCAAUGUCCUCAUCCUUCAAUGCAUCCCACCACAUGAUGAUGCCUGAAGAGCCUUGGUUUUUUG  -2.62
12. GACCAAUCUGCCCUCAGAGCUCGAGAACAUCUUCGGAUGCAGAUGAGGCAGUCUACGGUGGCGCGAUAGCGCCAACGUCCUCAACCUCCAAUGCAUCCCACCACAUGAUGAUGCCUGAAGAGCCUUGGUUUAUUG  -2.55
13. GACCAAUCUGCCCUCAGAGCUCGAGAACAUCUUCGGAUGCAGAGGAGGCAGGCUUCGGUGGCGCGAUAGCGGCAACGUCCUCAACCUACUAUGCAUCCCACCACAUGAUGAUGCCUGAAGAGCCUUGGUUUUUUG  -2.14
14. GACCAAUCUGCCCUCAGAGCUCGAGAACAUCUUCGGAUGCAGAGGAGGCAGGCUUCGGUGGCGCGAUAGCGCCAACGGCCUCAACCUCCAAUGCAUCCCACCACAUGAUGAUACCUGAAGAGCCUUGGUCUUUUG  -1.64
15. GACCAAUCUGCCCUCAGAGCUCGAGAACAUCUUCGGAUGCAGAGGAGGCAGGCUUCGGUAGCGCGAUAGCGCCAACGUCCUGAACAGCCAAUGCAUCCCACCACAUGAUGAUGCCUGAAGAGCCUUGGUUUUUUG  -1.52
16. GACCAAUCUGUCCUCAGAGCUCGAGAACAUCUUCGGAUGCAGAGGAGGCAGGCUUCGGUGGCGCGAUAGCGCCAACGUCCUCAACCUCCAAUGCAUCCCACCACAUGAUGAUGACUGAAGAGCCUUGGUUUUUUG  -1.22
17. GACCAAUCUGCCCUCAGAGCUCGAGAACAUCUUCGGAUGCAGAGGAGGCAGGCUUCGGUGGCGCGAUAGCGACAACGUCCUCAACCUCCAAUGCCUCCCACCACAUGAUGAUGCCUGAAGAGCCUUGGUUUUUUG  -0.926
18. GACCAAUCUGCCCUCAGAGCUCGAGAACAUCUUCGGAUGCAGAGAAGGCAGGGUUCGGGGGCGCGAUAGCGCCAACGUCCUCAACCUCCAAUGCAUCCCACCAAAUGAUGAAGCCUGAAGAGCCUUGGUUUUUUG  -0.739
19. GACCAAUCUGCCCUCAGAGCUCGAGAACAUCUUCGGAUGCAGAGGAGGCAGGCUUCGGUGGCGCGAUAGCGGCAACGUCCUCAACCUCCAAUGCAUCCCACCACAUGAUGAUGCAUGAAGAGCCUUGGUUUUUUG  -0.17
20. GACCAAUGUGCCCUCAGAGCUCGAGAACAUCUUCGAAUGCAGAGGAGGCAGGCUUCGGUGGCGCGAUAGCGCCAACGUCCUCAACCUCCAAUGCAUCCCACCACAUGAUGAUGCCUGAAGAGCCUUGGUUUUUUG  -0.023
21. GACCAAUCUGCCCUCAGAGCUCGAGAACAUCUUCGGAUGCAGAGGAGGCAGGCUUCGGUGGCGCGAUAGCGCCAACGUCCUCAACCUCCAAUGCAUCCCACCACAUGAUGAAGCCUGAAGAGUCUUGGUUUUUUG  1.03
